The labels stand for the following.
B1: OR4K15 (parent)
chain: GUUAACGGUCAUAGGCCAUGGAAACUAGGAGCACCAUUUCGCUGCCAGUGAAGAAAUGAACAAAGAAAAUCUGGGCCAGGCAGGCAUCAAAAGAAAUAGUCUUGCGCUCAACCAGAAAGUCUGUAAUCAUUUUAAGGGUA

The variants in this series derive from B1. Put plainly: self-cleavage, relative activity (ratio to wild type); higher = more cleavage; in vitro, sequencing; the parent is a self-cleaving ribozyme.
With A4G A69U, the self-cleavage worked out at 1.14.

With C6U U19G, the self-cleavage turned out to be 0.77.

Consider C81U U122C, for which the self-cleavage turned out to be 0.29.

Turning to A13U U72C, the self-cleavage turned out to be 0.49.

On to G20A A95U, for which the self-cleavage worked out at 1.89.

For the variant U49C U120C, the self-cleavage stood at 0.52.

Turning to U2C A5U, the self-cleavage came out at 1.16.

Consider U57A A78U, for which the self-cleavage is 0.16.

With A91G A98G, the self-cleavage was found to be 0.26.

Consider A62U C88U, for which the self-cleavage turned out to be 2.34.

G75C A98G: the self-cleavage is 0.07.

Take A78U A110G: the self-cleavage was 0.05.

Consider G21A U122G, for which the self-cleavage amounted to 2.56.

As for G99A G136A, the self-cleavage stood at 0.91.

As to U39C G50A, the self-cleavage stood at 1.2.

Consider A36U A47G, for which the self-cleavage turned out to be 1.03.

In the case of C76U C105U, the self-cleavage came to 0.03.

Take U57A U127C: the self-cleavage was 0.65.

On to U38A U100C, for which the self-cleavage worked out at 2.23.

As for A98U A110G, the self-cleavage was 0.17.

For the variant A55G G106U, the self-cleavage was 0.02.

For A36C U43C, the self-cleavage was found to be 1.24.

For the variant U124C U127C, the self-cleavage worked out at 0.84.

Turning to A78C A91C, the self-cleavage amounted to 0.19.

Consider A23G A51U, for which the self-cleavage turned out to be 1.22.

Take G20A A64G: the self-cleavage came out at 1.49.

With A64G G137U, the self-cleavage worked out at 2.23.

Consider U130C A135U, for which the self-cleavage was 0.65.

For A11U A63G, the self-cleavage stood at 0.86.

As for U2C A18G, the self-cleavage turned out to be 0.6.

Turning to A27G G48U, the self-cleavage amounted to 0.5.

For the variant A11U C88A, the self-cleavage worked out at 1.99.

For the variant A24G U132A, the self-cleavage stood at 0.48.

For the variant A62G A78U, the self-cleavage was found to be 0.19.

Turning to A54G A69C, the self-cleavage amounted to 1.39.

As for U39C A92G, the self-cleavage amounted to 1.3.

Consider A51G A86U, for which the self-cleavage was 1.56.

For the variant U87C U131A, the self-cleavage worked out at 0.39.

Take A52U A64G: the self-cleavage turned out to be 1.71.

As for U70A A94G, the self-cleavage was found to be 0.72.

Consider A89U A95G, for which the self-cleavage came out at 2.26.

As for A52G C113U, the self-cleavage was 0.14.

Take A62G U108A: the self-cleavage is 0.01.

Take A52G U120A: the self-cleavage amounted to 2.19.

As to A27G G79A, the self-cleavage amounted to 0.15.

Turning to U2A A69G, the self-cleavage worked out at 1.62.

With A36U A90G, the self-cleavage is 1.74.

As to A56G G115U, the self-cleavage was determined as 0.03.

For the variant G21A G138A, the self-cleavage was 0.84.

Take C88A U102C: the self-cleavage stood at 2.23.

On to A68G A114C, for which the self-cleavage turned out to be 0.04.

As to C42U A116G, the self-cleavage was determined as 0.68.

Regarding U132C A135G, the self-cleavage stood at 1.53.

Turning to G74U A116U, the self-cleavage was 0.03.

As for C16G A78U, the self-cleavage worked out at 0.66.

As to U39C, the self-cleavage was found to be 1.34.

Consider U72A A90G, for which the self-cleavage was determined as 0.18.

Consider U49C A59U, for which the self-cleavage came to 1.24.

For A60G A90U, the self-cleavage amounted to 1.84.

Turning to U9C C46A, the self-cleavage worked out at 1.74.

With A63G U139C, the self-cleavage was 1.1.

G29A A96G: the self-cleavage is 2.13.

Consider A111U A116G, for which the self-cleavage came to 0.04.

Consider A64U A96C, for which the self-cleavage was 1.28.

With A51U U132C, the self-cleavage worked out at 1.06.

In the case of A23U A66G, the self-cleavage is 1.16.

For the variant A18G A117U, the self-cleavage worked out at 1.01.

Turning to A110G A129U, the self-cleavage was 0.08.

As for A11G A60U, the self-cleavage came out at 1.02.

With A36C U131C, the self-cleavage turned out to be 1.1.

Regarding C45G A116G, the self-cleavage came to 0.77.

Take G14A A51G: the self-cleavage stood at 1.18.

In the case of A63G A86G, the self-cleavage came out at 1.47.

For A4U A95G, the self-cleavage was 1.65.

With A24G A82C, the self-cleavage was found to be 0.25.

As to A67G U70A, the self-cleavage is 0.72.

Consider A11C U124C, for which the self-cleavage amounted to 1.12.

Consider A63G U124C, for which the self-cleavage is 1.17.

On to C45U U49G, for which the self-cleavage amounted to 1.93.

For A47U A117C, the self-cleavage came out at 0.24.

As for A125G A135U, the self-cleavage was found to be 0.54.

As for G119C, the self-cleavage came out at 1.04.

Turning to A62G A82U, the self-cleavage stood at 0.25.

As to A47G A60G, the self-cleavage was 0.74.

As for A24C U70G, the self-cleavage is 0.73.

As to U122C U139A, the self-cleavage was determined as 1.1.

In the case of A24U A78C, the self-cleavage amounted to 0.29.

In the case of G73A G79A, the self-cleavage worked out at 0.17.

Consider A86U U122C, for which the self-cleavage turned out to be 1.74.

As for A51G C128U, the self-cleavage turned out to be 2.26.

As to G75A U122C, the self-cleavage turned out to be 0.08.

With G28C A64G, the self-cleavage is 0.77.

As to A13G A54G, the self-cleavage was 0.81.

With A90G U124C, the self-cleavage is 0.78.

Consider U19A G137U, for which the self-cleavage was 1.52.

For the variant C88A A94G, the self-cleavage was found to be 1.5.

In the case of U49C A52G, the self-cleavage was 1.16.

Regarding U72C A111G, the self-cleavage is 0.02.

Turning to A55G A69G, the self-cleavage is 0.78.

On to A51C U127C, for which the self-cleavage was 1.02.

With U38C A67U, the self-cleavage worked out at 2.33.

Take A52G G79A: the self-cleavage came out at 0.27.

As to C109U, the self-cleavage amounted to 0.49.

Turning to A82C A91U, the self-cleavage was determined as 0.3.

On to A95U A117U, for which the self-cleavage was found to be 0.55.

For A11U U39A, the self-cleavage turned out to be 1.34.

A96C U122A: the self-cleavage was found to be 0.42.

Regarding G84A A86G, the self-cleavage was 1.73.

For A27C G75C, the self-cleavage came to 0.12.

With G75U, the self-cleavage was 0.12.

A96C A140U: the self-cleavage came to 1.14.

With A30U A82G, the self-cleavage turned out to be 0.52.

As to A68U, the self-cleavage was determined as 1.83.

On to A95G C107A, for which the self-cleavage was found to be 0.02.

For the variant U57C G84A, the self-cleavage is 1.76.

For A86U U139A, the self-cleavage is 1.53.

Source of the values: the RNAGym collection of RNA variant scans (doi:10.7554/elife.90254).
